Earlier results, collected in PMC12818765.

Key:
Asp48 = Asp48 (UniProt position 66, TNRNTDGSTDY)
Tyr53 = Tyr53 (UniProt position 71, DGSTDYGILQI)
Asp52 = Asp52 (UniProt position 70, TDGSTDYGILQ)
Glu7 = Glu7 (UniProt position 25, VFGRCELAAAM)
Lys96 = Lys96 (UniProt position 114, SVNCAKKIVSD)
Lys116 = Lys116 (UniProt position 134, WRNRCKGTDVQ)
Asp101 = Asp101 (UniProt position 119, KKIVSDGNGMN)
His15 = His15 (UniProt position 33, AAMKRHGLDNY)
Asp18 = Asp18 (UniProt position 36, KRHGLDNYRGY)
Lys13 = Lys13 (UniProt position 31, LAAAMKRHGLD)
Tyr23 = Tyr23 (UniProt position 41, DNYRGYSLGNW)
Lys97 = Lys97 (UniProt position 115, VNCAKKIVSDG)
Lys1 = Lys1 (UniProt position 19, LAALGKVFGRC)
Tyr20 = Tyr20 (UniProt position 38, HGLDNYRGYSL)
Cterm129 = Cterm129 (UniProt position 147, IRGCRL-----)
Asp87 = Asp87 (UniProt position 105, ALLSSDITASV)
Lys33 = Lys33 (UniProt position 51, WVCAAKFESNF)
Asp119 = Asp119 (UniProt position 137, RCKGTDVQAWI)
Asp66 = Asp66 (UniProt position 84, RWWCNDGRTPG)
Glu35 = Glu35 (UniProt position 53, CAAKFESNFNT)
Nterm1 = Nterm1 (UniProt position 19, LAALGKVFGRC)
His121 = His121 (UniProt position 203, KPNNTHEQHLR); details: not stated
His8 = His8 (UniProt position 90, STKKLHKEPAT); details: not stated
His124 = His124 (UniProt position 206, NTHEQHLRKSE); details: not stated
His46 = His46 (UniProt position 128, TPETKHPKKGV); details: not stated
Glu135 = Glu135 (UniProt position 217, AQAKKEKLNIW); details: not stated
Glu67 = Glu67 (UniProt position 149, TKKMVENAKKI); details: not stated
Glu73 = Glu73 (UniProt position 155, NAKKIEVEFDK); details: not stated
Glu52 = Glu52 (UniProt position 134, PKKGVEKYGPE); details: not stated
Glu57 = Glu57 (UniProt position 139, EKYGPEASAFT); details: not stated
Asp40 = Asp40 (UniProt position 122, RLLLVDTPETK); details: not stated
Glu122 = Glu122 (UniProt position 204, PNNTHEQHLRK); details: not stated
Glu129 = Glu129 (UniProt position 211, HLRKSEAQAKK); details: not stated
Glu10 = Glu10 (UniProt position 92, KKLHKEPATLI); details: not stated
Glu43 = Glu43 (UniProt position 125, LVDTPETKHPK); details: not stated
Glu75 = Glu75 (UniProt position 157, KKIEVEFDKGQ); details: not stated
Glu101 = Glu101 (UniProt position 183, GKMVNEALVRQ); details: not stated
Asp95 = Asp95 (UniProt position 177, AYIYADGKMVN); details: not stated

Substance: Hen egg-white lysozyme (HEWL, lysozyme C) (Gallus gallus)
- pKa (Asp48): 1.60
- pKa (Tyr53): 12.10
- pKa (Asp52): 3.68
- pKa (Glu7): 2.85
- pKa (Lys96): 10.80
- pKa (Lys116): 10.40
- pKa (Asp101): 4.09
- pKa (His15): 5.36
- pKa (Asp18): 2.66
- pKa (Lys13): 10.60
- pKa (Tyr23): 9.80
- pKa (Lys97): 10.30
- pKa (Lys1): 10.90
- pKa (Tyr20): 10.30
- pKa (Cterm129): 2.75
- pKa (Asp87): 2.07
- pKa (Lys33): 10.60
- pKa (Asp119): 3.20
- pKa (Asp66): 0.90
- pKa (Glu35): 6.20
- pKa (Nterm1): 7.90

Substance: Staphylococcal nuclease (SNase), form used for the histidine pKa values (Staphylococcus aureus)
- pKa (His121): 5.30
- pKa (His8): 6.52
- pKa (His124): 5.73
- pKa (His46): 5.86

Substance: Staphylococcal nuclease (SNase), form used for the Asp/Glu pKa values (Staphylococcus aureus)
- pKa (Glu135): 3.76
- pKa (Glu67): 3.76
- pKa (Glu73): 3.31
- pKa (Glu52): 3.93
- pKa (Glu57): 3.49
- pKa (Asp40): 3.87
- pKa (Glu122): 3.89
- pKa (Glu129): 3.75
- pKa (Glu10): 2.82
- pKa (Glu43): 4.32
- pKa (Glu75): 3.26
- pKa (Glu101): 3.81
- pKa (Asp95): 2.16
